From patent US20210070855A1 (NANJING LEGEND BIOTECH, published 2021)
Read-outs that look alike come from different tables or passages of the source.

Experiments:
human CD47 on cells [1] = biological target: T1, human CD47 on cells (human, UniProt Q08722 19-323); experiment: flow cytometry on red blood cells; unit taken from the axis
T1 construct: also called CHO-K1/huCD47; human CD47 over-expressed in CHO-K1 cells

human CD47 on cells [2] = biological target: T1, human CD47 on cells; experiment: flow cytometry on CHO-K1/huCD47 cells; unit taken from the axis
Method: (§1) Binding to cell-expressed human CD47 was evaluated on human CD47 over-expressing CHO cells (GenScript, Cat #M00581). Anti-CD47 antibody dilution series was prepared in FACS buffer. CHO-K1/human CD47 cells were transferred to a 96-well U-bottom plate and anti-CD47 antibody dilution was added. […] The cells were then washed twice with wash buffer. Cells were analyzed for binding by FACSCalibur (BD Bioscience, San Jose, Calif.) and Flowjo software.

[3] = biological target: T2, cynomolgus monkey CD47 on CHO-K1 cells (cynomolgus monkey, UniProt A0A5F8AK49 19-323 (rhesus entry)); experiment: flow cytometry on CHO-K1/cynoCD47 cells; unit taken from the axis
T2 construct: whole, on cells; also called CHO-K1/cyno CD47; CHO-K1/cynoCD47
Method: (§2) Briefly, binding to cell-expressed cyno CD47 was evaluated on cynomolgus monkey CD47 over-expressing CHO cells. Anti-CD47 antibody dilution series was prepared in FACS buffer. CHO-K1/cynomolgus monkey CD47 cell were transferred to a 96-well U-bottom plate and add CD47 antibody dilution. After 30 minutes incubation at 4° C., cells were washed twice with FACS buffer. […] The cells were washed twice with wash buffer, and then analyzed for binding by using FACSCalibur (BD Bioscience, San Jose, Calif.) and Flowjo software.

human CD47-His protein = biological target: T3, human CD47-His protein (human, UniProt Q08722 19-139, limits assumed); experiment: SPR (Biacore T200), antibody captured, human CD47-His as analyte, 1:1 model
T3 construct: It includes the signal peptide and the membrane-spanning region, which a soluble protein would lack; not shown: His tag

human CD47 on cells [4] = biological target: T1, human CD47 on cells; experiment: flow cytometry, blocking of human SIRPα binding to CHO-K1/huCD47 cells; the box on the sheet is labelled EC50; unit taken from the axis
human CD47 on cells [5] = biological target: T1, human CD47 on cells; experiment: flow cytometry on CHO-K1/huCD47 cells; x axis Log(nM), unit taken from the axis
Method: as §1

CD47 protein [6] = biological target: T4, CD47 protein; experiment: ELISA on CD47 protein; x axis is log10 of mAb (ng/ml), unit taken from the axis
T4 construct: also called CD47 (ELISA antigen); not shown: The carrier of the coated recombinant protein (an Fc tag as in CD47-Fc, or a His tag as in CD47-His)

human CD47 on cells [7] = biological target: T1, human CD47 on cells; experiment: flow cytometry, blocking of human SIRPα binding to CHO-K1/huCD47 cells; the box on the sheet is labelled EC50; unit taken from the axis; remark: listed apart in the source
Method: (§3) After 30 minutes incubation at 4° C., cells were washed twice with FACS buffer.

human CD47 on cells [8] = biological target: T1, human CD47 on cells; experiment: flow cytometry on CHO-K1/huCD47 cells; x axis Log(nM)
Method: as §1

CD47 protein [9] = biological target: T4, CD47 protein; experiment: ELISA on CD47 protein; x axis is log10 of mAb (ng/ml)
[10] = biological target: T2, cynomolgus monkey CD47 on CHO-K1 cells; experiment: flow cytometry on CHO-K1/cyno CD47 cells; unit taken from the axis
Method: as §2

human CD47 on cells [11] = biological target: T1, human CD47 on cells; experiment: flow cytometry, blocking of human SIRPα binding to CHO-K1/huCD47 cells
Method: as §3

| Binder | EC50 (human CD47 on cells [1]) [nM] | EC50 (human CD47 on cells [2]) [nM] | EC50 [3] [nM] | Kd (human CD47-His protein) [nM] | koff (human CD47-His protein) [s⁻¹] | kon (human CD47-His protein) [M⁻¹ s⁻¹] | IC50 (human CD47 on cells [4]) [nM] | EC50 (human CD47 on cells [5]) [nM] | EC50 (CD47 protein [6]) [ng/mL] | IC50 (human CD47 on cells [7]) [nM] | EC50 [10] [nM] | other results |
| --- | --- | --- | --- | --- | --- | --- | --- | --- | --- | --- | --- | --- |
| 108VH4.M4_VL1.M1-hIgG1 (antibody, Humanized 108C10A6, human IgG1 with kappa light chain; also called 108VH4.M4_VL1.M1-hlgG1; 108VH4.M4_VL1.M1-hIgG1-Ka) heavy: not shown light: EIVLTQSPATLSLSPGERATLSCRASENVGTYISWYQQKPGQAPRLLIYGASNRYTGIPARFSGSGSGTDFTLTISSLEPEDFAVYYCGESYGHLYTFGGGTKVEIKRTVAAPSVFIFPPSDEQLKSGTASVVCLLNNFYPREAKVQWKVDNALQSGNSQESVTEQDSKDSTYSLSSTLTLSKADYEKHKVYACEVTHQGLSSPVTKSFNRGEC | 2.62 | 0.299 | 0.262 | 1.4 | 0.00043 | 310000 | 0.911 | – | – | – | – | – |
| 108VH4.M4_VL1.M1-hIgG2 (antibody, Humanized 108C10A6, human IgG2 with kappa light chain; also called 108VH4.M4_VL1.M1-hlgG2; 108VH4.M4_VL1.M1-hIgG2-Ka) heavy: EVQLVQSGAEVKKPGSSVKVSCKASGYSFTHHWIHWVRQAPGQGLEWMGMIDASDSETRLSQKFKDRVTITADKSTSTAYMELSSLRSEDTAVYYCARLGRYYFDYWGQGTTVTVSSASTKGPSVFPLAPCSRSTSESTAALGCLVKDYFPEPVTVSWNSGALTSGVHTFPAVLQSSGLYSLSSVVTVPSSNFGTQTYTCNVDHKPSNTKVDKTVERKCCVECPPCPAPPVAGPSVFLFPPKPKDTLMISRTPEVTCVVVDVSHEDPEVQFNWYVDGVEVHNAKTKPREEQFNSTFRVVSVLTVVHQDWLNGKEYKCKVSNKGLPAPIEKTISKTKGQPREPQVYTLPPSREEMTKNQVSLTCLVKGFYPSDIAVEWESNGQPENNYKTTPPMLDSDGSFFLYSKLTVDKSRWQQGNVFSCSVMHEALHNHYTQKSLSLSPGK light: EIVLTQSPATLSLSPGERATLSCRASENVGTYISWYQQKPGQAPRLLIYGASNRYTGIPARFSGSGSGTDFTLTISSLEPEDFAVYYCGESYGHLYTFGGGTKVEIKRTVAAPSVFIFPPSDEQLKSGTASVVCLLNNFYPREAKVQWKVDNALQSGNSQESVTEQDSKDSTYSLSSTLTLSKADYEKHKVYACEVTHQGLSSPVTKSFNRGEC | 5.51 | 1.4 | 1.31 | 1.5 | 0.00044 | 290000 | 1.87 | – | – | – | – | – |
| 98G5F6 (antibody, V domains shown, purified murine anti-CD47 hybridoma antibody; same VH and VL as 98G5F11; also called 05-98G5F6) VH: QVQLQQSGPQLVRPGASVKISCKASGYSFTNYWMHWMKQRPGQGLEWIGMIDPSDSETRLNQQFKDKATLTVDKSSSTAYMQLSSPTSEDSAVYYCARLGRYYFDFWGQGTTLTVSS VL: NIVMTQSPKSMSVSVGERVTLSCRASEIVGTYVSWYQQKPEQSPKLLIYGASNRFTGVPDRFTGSRSATDFSLTISNVQAEDLADYLCGQSYDSPYTFGGGTKLEIK | – | – | – | – | – | – | – | 3.48 | 3.53 | 6.97 | – | – |
| 98G5F11 (antibody, V domains shown, purified murine anti-CD47 hybridoma antibody; same VH and VL as 98G5F6; also called 06-98G5F11) VH: QVQLQQSGPQLVRPGASVKISCKASGYSFTNYWMHWMKQRPGQGLEWIGMIDPSDSETRLNQQFKDKATLTVDKSSSTAYMQLSSPTSEDSAVYYCARLGRYYFDFWGQGTTLTVSS VL: NIVMTQSPKSMSVSVGERVTLSCRASEIVGTYVSWYQQKPEQSPKLLIYGASNRFTGVPDRFTGSRSATDFSLTISNVQAEDLADYLCGQSYDSPYTFGGGTKLEIK | – | – | – | – | – | – | – | – | – | – | – | EC50 (read off the curve) (human CD47 on cells [8]): ~10 nM; EC50 (read off the curve) (CD47 protein [9]): ~9 ng/mL |
| 112E5H7 (antibody, V domains shown, purified murine anti-CD47 hybridoma antibody; same VH and VL as 112E5D9 and 112E5F2; also called 12-112E5H7) VH: QVQLQQSGPQLVRPGASVKISCKASGYSFTNNWMHWMKQRPGQGLEWIGMIDPSDSETRLNQQFRDKATLTVDKTSSTAYMQLSSPTSEDSAVYYCARLGRYYFDYWGLGTTLTVSS VL: NIVMTQSPKSMSVSVGERVTMNCRASEIVGTYVSWYQQKPEQSPKLLIYGAFNRYTGVPDRFTGSRSGTDFSLNISNVQAEDLADYLCGQSYDSPYTFGGGTKLEIK | – | – | – | – | – | – | – | – | 9.81 | 3.4 | 1.53 | – |
| 55F2C4 (antibody, V domains shown, also called 01-55F2C4) VH: QVQLQQSGPQLVRPGASVKISCKASGYSFTNYWMHWMKQRPGQGLEWIGMIDPSDSETRLNQQFKDKATLAVDKSSSTAYMQLSSPTSEDSAVYYCARLGRYYFDYWGQGTTLTVSS VL: NIVMTQSPKSMYVSVGERVTLICRASEIVGTYVSWYQQKPEQSPKLLIYGASNRYTGVPDRFTGSRSATDFSLTISNVQAEDLADYLCGQSYDSPYTFGGGTKLEIK | – | – | – | – | – | – | – | 52.5 | 1.39 | – | 5.75 | IC50 (read off the curve) (human CD47 on cells [11]): ~5 nM |
